Source: the supplement of paper PMC10724198
± gives the standard deviation of the averaged measurements.

Each sequence was assayed on Saccharomyces cerevisiae (assay: protein stability index of tFT-peptide fusion (C-terminal peptide) (PSI (0-1 scale)); higher = more stable (slower turnover)). Conditions: genetic background: wild type; temperature: 30 C.
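Further: PSI is a weighted mean of sequencing reads over stability bins, variants kept only with over 10 reads, mCherry proximal and sfGFP distal, peptide attached via GGGS linker.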

Sequence | protein stability index
SDCWGAIIGCSG | 0.677 ± 0.027
SDPGRLVLKIRR | 0.715 ± 0.014
SDSIVTGCLKYP | 0.696 ± 0.014
SEARCVGSVWGG | 0.757 ± 0.098
SEKGPRRSRVWD | 0.745 ± 0.046
SEKILCTGECAA | 0.619 ± 0.07
SEKIRDQQPTPA | 0.671 ± 0.044
SEKRIGAGKDSE | 0.688 ± 0.011
SENNLKHEKVIE | 0.735 ± 0.22
SERERYKKNEKV | 0.643 ± 0.0017
SEVISMSDDLGR | 0.633 ± 0.087
SFASLSFDTASF | 0.675 ± 0.0086
SFCCISSFPCWR | 0.751 ± 0.016
SFDFRKGDPTSD | 0.667 ± 0.02
SFGGGLIGAGVT | 0.698 ± 0.082
SFHCFFTTSWYS | 0.701 ± 0.11
SFLSLLLLSSSR | 0.7 ± 0.012
SFMYCDLLLFGS | 0.59 ± 0.068
SFPLLFPVSSRL | 0.8641 ± 0.0077
SFPLSPPSLPSL | 0.781 ± 0.1
SFPPLCLSFPVF | 0.65 ± 0.02
SFPYPCFPPPPF | 0.78 ± 0.056
SFSLPPSSSPPT | 0.725 ± 0.1
SFSPNRAVSFST | 0.727 ± 0.082
SFSPSIHLLSTL | 0.677 ± 0.045
SFTFSFWRFSPR | 0.676 ± 0.019

Sequence | protein stability index
SFTYVFFSLSRR | 0.663 ± 0.019
SFVFRLGEVGSS | 0.603 ± 0.12
SFVFVCDGGSRG | 0.669 ± 0.017
SFVVAVALGRLR | 0.5734 ± 0.003
SFVVFGSFFCFC | 0.572 ± 0.018
SGAATSRRGLCS | 0.672 ± 0.013
SGAGAMPPCSLP | 0.697 ± 0.029
SGCGGKFGCALR | 0.74 ± 0.045
SGCRLGCASVVQ | 0.611 ± 0.044
SGGGAGKRVCEG | 0.704 ± 0.015
SGGGELGATSGG | 0.691 ± 0.031
SGGGGGGQVAVG | 0.739 ± 0.1
SGGISGCPPPVF | 0.689 ± 0.036
SGGRTSRREGGR | 0.643 ± 0.075
SGGSKAGGVVRI | 0.63 ± 0.039
SGIIVSPAVDMY | 0.667 ± 0.0067
SGIKGENKIKEK | 0.681 ± 0.0097
SGILRSLAYPPD | 0.6142 ± 0.0035
SGKFGACVDRGI | 0.7236 ± 0.00012
SGLRPGAGDCSA | 0.611 ± 0.07
SGPSSIGSSCMS | 0.663 ± 0.023
SGQVFADGSYAD | 0.699 ± 0.015
SGRAALARVSPT | 0.694 ± 0.028
SGRCGGESNDAE | 0.626 ± 0.012
SGRPALSRARRG | 0.668 ± 0.015
SGRYNIKPEERE | 0.634 ± 0.022

Sequence | protein stability index
SGSLFVRIGGMG | 0.754 ± 0.094
SGVDVPCSCHYL | 0.732 ± 0.013
SGVTISYQEGLR | 0.677 ± 0.0091
SGVVIDDSLKEE | 0.683 ± 0.0092
SGVVLVRCEGRR | 0.754 ± 0.15
SGWVVECPRECW | 0.719 ± 0.024
SHALSFSFSLLP | 0.6367 ± 0.0052
SHGEDTACNWGL | 0.714 ± 0.018
SHPHLSSPPSRP | 0.678 ± 0.055
SHPLFLPALSPP | 0.721 ± 0.061
SHQTTKQKKKNL | 0.624 ± 0.013
SHSLPHLSGPPR | 0.698 ± 0.056
SHTLIRRGTHFP | 0.683 ± 0.0094
SHTVVFRVCTGS | 0.631 ± 0.087
SHVPLPRAHSPP | 0.6702 ± 0.0034
SHVVRHVSTVEK | 0.7 ± 0.023
SICRERRLSFYL | 0.728 ± 0.052
SIECSLCYSLFD | 0.663 ± 0.032
SIERNEGRKKLG | 0.708 ± 0.064
SIFPLSLLLPLP | 0.758 ± 0.05
SIHITGTLSRTA | 0.751 ± 0.065
SIIRWSKRTEES | 0.695 ± 0.049
SIKKKQKIKLTK | 0.689 ± 0.02
SIRPVRLSWVRL | 0.632 ± 0.0066
SIRQDSLMVWGG | 0.666 ± 0.097
SISANPGAPHFP | 0.666 ± 0.022

Sequence | protein stability index
SISGTSKDSASC | 0.6677 ± 0.0028
SISRPSEHHLTQ | 0.673 ± 0.023
SIVLRNRSGDIL | 0.63 ± 0.061
SIVPIIPDSVPP | 0.676 ± 0.048
SKEERRKGSKKI | 0.686 ± 0.054
SKKRKKNNAKTK | 0.713 ± 0.01
SKLRDFHVLVTH | 0.611 ± 0.011
SLAFGPTAFLPT | 0.6818 ± 0.0038
SLAGGSSAPSAS | 0.673 ± 0.013
SLALSAGFSIYL | 0.6693 ± 0.0062
SLASPPPLHCTL | 0.659 ± 0.034
SLAVATAVLLYP | 0.666 ± 0.035
SLAYPPPSPPPA | 0.68 ± 0.054
SLCFSVFFPFFF | 0.5443 ± 0.0027
SLCHLFYGSVEG | 0.668 ± 0.055
SLEYIFSCWSLY | 0.711 ± 0.1
SLFASTFFVWPS | 0.725 ± 0.014
SLFPAETPPKYR | 0.656 ± 0.025
SLFRYPLALPFP | 0.711 ± 0.012
SLFSLLRSPSPF | 0.806 ± 0.18
SLGRVSRLSFQH | 0.784 ± 0.041
SLGSISSATLLA | 0.6117 ± 0.0026
SLIACQGPIPCG | 0.648 ± 0.038
SLIFVSLLGAYD | 0.623 ± 0.056
SLLAGSSLPFSP | 0.696 ± 0.0074
SLLAPPALTAPS | 0.674 ± 0.05

Sequence | protein stability index
SLLPPPPPPAPS | 0.627 ± 0.011
SLLSRYFLLPLL | 0.545 ± 0.061
SLPFSPPTRSSL | 0.758 ± 0.052
SLPPPPLLPRPL | 0.686 ± 0.061
SLPSPIPPPSLL | 0.739 ± 0.29
SLPSSPPPSPPL | 0.7172 ± 0.0043
SLRFLFPSSRFF | 0.664 ± 0.015
SLRLAHSPPDEV | 0.749 ± 0.17
SLRLFIHTIFSR | 0.695 ± 0.061
SLRLPPPRRLPV | 0.658 ± 0.12
SLRMMKTTNAWT | 0.661 ± 0.0077
SLRPPLHSPSPS | 0.674 ± 0.016
SLRPSELFRPLN | 0.724 ± 0.014
SLRSPPPPPGIL | 0.756 ± 0.046
SLSIFLRDALGF | 0.74 ± 0.035
SLSIHPCHFGPS | 0.671 ± 0.03
SLSPGLPPVLLT | 0.666 ± 0.0067
SLSPPLLPPSPP | 0.643 ± 0.018
SLSPPPLSPSPP | 0.627 ± 0.022
SLVCGFAVGGFW | 0.659 ± 0.044
SLVPCFLSFLYP | 0.5752 ± 0.0017
SLVSGPRPPSAF | 0.737 ± 0.089
SLVVSPRQLLPR | 0.704 ± 0.029
SLWWRWQATIRR | 0.714 ± 0.13
SLYERYGRFNSS | 0.656 ± 0.027
SLYPRALDFGPM | 0.692 ± 0.033

Sequence | protein stability index
SLYYPRLVSSSL | 0.732 ± 0.11
SMGGRVGDLACQ | 0.725 ± 0.042
SMSPHKCSVCFC | 0.644 ± 0.045
SMSPPLSLFPSF | 0.841 ± 0.096
SMSSERYIKRGN | 0.702 ± 0.011
SNFRDISLHAAG | 0.684 ± 0.042
SNGVCVGGSESA | 0.674 ± 0.082
SNIDIEAELNKT | 0.728 ± 0.031
SNIEKKKTIKRK | 0.6929 ± 0.0069
SNKGIKNIKKKT | 0.728 ± 0.0084
SNQHKKKNQLRE | 0.693 ± 0.086
SNRASVCKSGKR | 0.6768 ± 0.0017
SNRLIKKKKKRI | 0.715 ± 0.036
SNWLMTYIIRRK | 0.641 ± 0.012
SPAAGGRVGVRR | 0.715 ± 0.021
SPAPIRFLWTIP | 0.59 ± 0.028
SPAPPLSRPPPH | 0.695 ± 0.0081
SPASPPLPAPPP | 0.68 ± 0.032
SPFLPLHRPRML | 0.653 ± 0.018
SPFSPLPSPRPR | 0.723 ± 0.018
SPGCPNRGAFEI | 0.871 ± 0.07
SPHRQIRKRFEK | 0.714 ± 0.026
SPITSLSGGTKR | 0.631 ± 0.064
SPKGRVISRRQP | 0.602 ± 0.034
SPLFLVIRLPST | 0.62 ± 0.055
SPLLASPSHLSL | 0.71 ± 0.083

Sequence | protein stability index
SPLLSSPSPFSL | 0.751 ± 0.095
SPLPPARSVPPP | 0.646 ± 0.067
SPLPPPPPVPLP | 0.652 ± 0.082
SPLPPSPSPPTP | 0.725 ± 0.22
SPLRHIPPLHTP | 0.686 ± 0.1
SPPAPPVSPPPP | 0.744 ± 0.042
SPPAPSLPTFPP | 0.617 ± 0.096
SPPARLLASLSP | 0.798 ± 0.2
SPPCSPSALSHL | 0.728 ± 0.053
SPPHAPPPVPSL | 0.751 ± 0.026
SPPHPAALPSSP | 0.7005 ± 0.0032
SPPILPRGLYSH | 0.637 ± 0.0097
SPPLLPPPSLPP | 0.628 ± 0.0056
SPPLPAPPPPIP | 0.60339 ± 3.2e-05
SPPLPSAPPPPR | 0.664 ± 0.027
SPPLQFLPYPFF | 0.685 ± 0.09
SPPLRTFPVTLP | 0.644 ± 0.1
SPPPALLPPLFP | 0.73 ± 0.064
SPPPFLLPRLFS | 0.639 ± 0.096
SPPPISPSLPPL | 0.728 ± 0.029
SPPPNSLPPPPP | 0.7181 ± 0.0043
SPPPPHPPPPAD | 0.651 ± 0.098
SPPPPPLTHSPS | 0.627 ± 0.15
SPPPPPPHPSHP | 0.692 ± 0.027
SPPPPRLPSPTP | 0.744 ± 0.054
SPPPPSPTCPHL | 0.652 ± 0.035

Sequence | protein stability index
SPPPPTSPRPLT | 0.709 ± 0.0085
SPPPRATLPRPP | 0.689 ± 0.085
SPPPRPLKLFPP | 0.599 ± 0.025
SPPPSPSPPPPL | 0.739 ± 0.049
SPPPSVCPRFPI | 0.761 ± 0.057
SPPRPPSLPPPG | 0.67 ± 0.071
SPPRSRPPPSLQ | 0.679 ± 0.015
SPPSLLATVYFF | 0.7065 ± 0.0015
SPPSPPPPPPPS | 0.691 ± 0.061
SPQKCKSAPSSC | 0.6746 ± 0.0031
SPRGPLVICHHP | 0.745 ± 0.075
SPRHNALHFTLV | 0.644 ± 0.032
SPRLLHPLPSFL | 0.7114 ± 0.0066
SPRLPPPLFLPL | 0.638 ± 0.02
SPRLQAFPGSRA | 0.713 ± 0.032
SPRQARSFLTSS | 0.756 ± 0.026
SPSGLPPPLTYP | 0.667 ± 0.034
SPSLLLSFLSFF | 0.665 ± 0.071
SPSLVVRVSFEF | 0.595 ± 0.025
SPSPFRPAPSLH | 0.7048 ± 0.0061
